Laboratory results as given in US20240059799A1 (Pfizer, published 2024).
Values belong to the binder of their own block, whether it stands above or below them.

Target: T1, recombinant human TL1A (human, UniProt O95150 71-251)
T1 construct: homotrimer; biotinylated for SPR capture; the ELISA paragraphs say only 'recombinant TL1A'; also called TNFSF15
T1 chain: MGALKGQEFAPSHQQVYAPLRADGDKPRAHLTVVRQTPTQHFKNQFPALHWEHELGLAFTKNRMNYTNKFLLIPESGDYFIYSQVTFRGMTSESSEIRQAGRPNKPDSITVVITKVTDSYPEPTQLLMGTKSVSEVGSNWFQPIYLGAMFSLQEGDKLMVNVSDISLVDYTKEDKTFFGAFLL
Test: competition ELISA vs bio-TL1A-0002
Method: For this competition ELISA assay procedure, 96-well high binding plates (Corning, product number 3590) were coated with 1 μg/mL recombinant TL1A in 100 μL/well in Phospate Buffered Saline (PBS) overnight at 4° C. Plates were then blocked in PBS+0.02% casein solution and washed with PBS+0.05% Tween-20 following standard ELISA protocol. […] Plates were washed with PBS+0.05% Tween-20 following standard ELISA protocol, and Streptavidin-HRP (Southern Biotech, product number 7100-05) diluted to 1:10,000 in assay buffer was added to plates and incubated for 25-30 minutes at room temperature. Next, the plates were washed with PBS+0.05% Tween-20 following standard ELISA protocol, and then TMB substrate (BioFX Laboratories, catalog number TMBW-0100-01) was added to plates. Reactions were stopped after approximately 5 minutes by adding 0.18 M ortho-phosphoric acid to each well and absorbance was read at 450 nm.

B2: TL1A-0082 (antibody, IgG1, V domains shown)
VH: QVQLVQSGAEVKKPGASVKVSCKASGYDFTYYGISWVRQAPGQGLEWMGWISAYNGNTHYAQKLQGRVTMTTDTSTRTAYMELRSLRSDDTAVYYCARENYYGSGAYRGGMDVWGQGTTVTVSS
VL: EIVLTQSPATLSLSPGERATLSCRASQSVSSYLAWYQQKPGQAPRLLIYDASNRATGIPARFSGSGSGTDFTLTISSLEPEDFAVYYCQQRSNWPWTFGQGTKVEIKR
notes: IgG1/kappa variant of TL1A-0002
Bioactivity relative to TL1A-0002: 1.2 fold
IC50: 5.2 nM

B4: TL1A-0088 (antibody, IgG1, V domains shown)
VH: QVQLVQSGAEVKKPGASVKVSCKASGYDFTYYGISWVRQAPGQGLEWMGWISTYGGNTHYAPSLQGRVTMTTDTSTRTAYMELRSLRSDDTAVYYCARENYYGSGAYRGGMDVWGQGTTVTVSS
VL: EIVLTQSPATLSLSPGERATLSCRASQSVSSYLAWYQQKPGQAPRLLIYDASNRATGIPARFSGSGSGTDFTLTISSLEPEDFAVYYCQQRSNWPWTFGQGTKVEIKR
notes: as for B2
Bioactivity relative to TL1A-0002: 1.4 fold
IC50: 6.5 nM

B5: TL1A-0090 (antibody, IgG1, V domains shown)
VH: QVQLVQSGAEVKKPGASVKVSCKASGYDFTYYGISWVRQAPGQGLEWMGWISTYNTGTHYAPSLQGRVTMTTDTSTRTAYMELRSLRSDDTAVYYCARENYYGSGAYRGGMDVWGQGTTVTVSS
VL: EIVLTQSPATLSLSPGERATLSCRASQSVSSYLAWYQQKPGQAPRLLIYDASNRATGIPARFSGSGSGTDFTLTISSLEPEDFAVYYCQQRSNWPWTFGQGTKVEIKR
notes: as for B2
Bioactivity relative to TL1A-0002: 1 fold
IC50: 4.5 nM

B6: TL1A-0092 (antibody, IgG1, V domains shown)
VH: QVQLVQSGAEVKKPGASVKVSCKASGYDFTYYGISWVRQAPGQGLEWMGWISTYNTVTHYAPSLQGRVTMTTDTSTRTAYMELRSLRSDDTAVYYCARENYYGSGAYRGGMDVWGQGTTVTVSS
VL: EIVLTQSPATLSLSPGERATLSCRASQSVSSYLAWYQQKPGQAPRLLIYDASNRATGIPARFSGSGSGTDFTLTISSLEPEDFAVYYCQQRSNWPWTFGQGTKVEIKR
notes: as for B2
Bioactivity relative to TL1A-0002: 1.2 fold
IC50: 5.2 nM

B7: TL1A-0087 (antibody, IgG1, V domains shown)
VH: QVQLVQSGAEVKKPGASVKVSCKASGYDFTYYGISWVRQAPGQGLEWMGWISAYNGNTHYAPSLQGRVTMTTDTSTRTAYMELRSLRSDDTAVYYCARENYYGSGAYRGGMDVWGQGTTVTVSS
VL: EIVLTQSPATLSLSPGERATLSCRASQSVSSYLAWYQQKPGQAPRLLIYDASNRATGIPARFSGSGSGTDFTLTISSLEPEDFAVYYCQQRSNWPWTFGQGTKVEIKR
notes: as for B2
Bioactivity relative to TL1A-0002: 1.1 fold
IC50: 4.8 nM

B9: TL1A-0089 (antibody, IgG1, V domains shown)
VH: QVQLVQSGAEVKKPGASVKVSCKASGYDFTYYGISWVRQAPGQGLEWMGWISTYNTGTHYAQKLQGRVTMTTDTSTRTAYMELRSLRSDDTAVYYCARENYYGSGAYRGGMDVWGQGTTVTVSS
VL: EIVLTQSPATLSLSPGERATLSCRASQSVSSYLAWYQQKPGQAPRLLIYDASNRATGIPARFSGSGSGTDFTLTISSLEPEDFAVYYCQQRSNWPWTFGQGTKVEIKR
notes: as for B2
Bioactivity relative to TL1A-0002: 1.2 fold
IC50: 5.4 nM

B12: TL1A-0086 (antibody, IgG1, V domains shown)
VH: QVQLVQSGAEVKKPGASVKVSCKASGYDFTYYGISWVRQAPGQGLEWMGWASTYNGNTHYAPSLQGRVTMTTDTSTRTAYMELRSLRSDDTAVYYCARENYYGSGAYRGGMDVWGQGTTVTVSS
VL: EIVLTQSPATLSLSPGERATLSCRASQSVSSYLAWYQQKPGQAPRLLIYDASNRATGIPARFSGSGSGTDFTLTISSLEPEDFAVYYCQQRSNWPWTFGQGTKVEIKR
notes: as for B2
Bioactivity relative to TL1A-0002: 1.1 fold
IC50: 5 nM

B13: TL1A-0097 (antibody, IgG1, V domains shown)
VH: QVQLVQSGAEVKKPGASVKVSCKASGYDFTYYGISWVRQAPGQGLEWMGWISTYNGNTHYARMLQGRVTMTTDTSTRTAYMELRSLRSDDTAVYYCAREQYYGSGAYRGGMDVWGQGTTVTVSS
VL: EIVLTQSPATLSLSPGERATLSCRASQSVSSYLAWYQQKPGQAPRLLIYDASNRATGIPARFSGSGSGTDFTLTISSLEPEDFAVYYCQQRSNWPWTFGQGTKVEIKR
notes: as for B2
Bioactivity relative to TL1A-0002: 2.2 fold
IC50: 10 nM

B14: TL1A-0081 (antibody, IgG1, V domains shown)
VH: QVQLVQSGAEVKKPGASVKVSCKASGYDFTYYGISWVRQAPGQGLEWMGWISAYNGNTHYARMLQGRVTMTTDTSTRTAYMELRSLRSDDTAVYYCARENYYGSGAYRGGMDVWGQGTTVTVSS
VL: EIVLTQSPATLSLSPGERATLSCRASQSVSSYLAWYQQKPGQAPRLLIYDASNRATGIPARFSGSGSGTDFTLTISSLEPEDFAVYYCQQRSNWPWTFGQGTKVEIKR
notes: as for B2
Bioactivity relative to TL1A-0002: 0.9 fold
IC50: 4.1 nM

B15: TL1A-0091 (antibody, IgG1, V domains shown)
VH: QVQLVQSGAEVKKPGASVKVSCKASGYDFTYYGISWVRQAPGQGLEWMGWISTYNTVTHYAQKLQGRVTMTTDTSTRTAYMELRSLRSDDTAVYYCARENYYGSGAYRGGMDVWGQGTTVTVSS
VL: EIVLTQSPATLSLSPGERATLSCRASQSVSSYLAWYQQKPGQAPRLLIYDASNRATGIPARFSGSGSGTDFTLTISSLEPEDFAVYYCQQRSNWPWTFGQGTKVEIKR
notes: as for B2
Bioactivity relative to TL1A-0002: 1.2 fold
IC50: 5.4 nM

B16: TL1A-0096 (antibody, IgG1, V domains shown)
VH: QVQLVQSGAEVKKPGASVKVSCKASGYDFTYYGISWVRQAPGQGLEWMGWISTYNGNTHYARMLQGRVTMTTDTSTRTAYMELRSLRSDDTAVYYCAREVYYGSGAYRGGMDVWGQGTTVTVSS
VL: EIVLTQSPATLSLSPGERATLSCRASQSVSSYLAWYQQKPGQAPRLLIYDASNRATGIPARFSGSGSGTDFTLTISSLEPEDFAVYYCQQRSNWPWTFGQGTKVEIKR
notes: as for B2
Bioactivity relative to TL1A-0002: 2.3 fold
IC50: 10.3 nM

B17: TL1A-0094 (antibody, IgG1, V domains shown)
VH: QVQLVQSGAEVKKPGASVKVSCKASGYDFTYYGISWVRQAPGQGLEWMGWISTYNGNTHYARMLQGRVTMTTDTSTRTAYMELRSLRSDDTAVYYCARESYYGSGAYRGGMDVWGQGTTVTVSS
VL: EIVLTQSPATLSLSPGERATLSCRASQSVSSYLAWYQQKPGQAPRLLIYDASNRATGIPARFSGSGSGTDFTLTISSLEPEDFAVYYCQQRSNWPWTFGQGTKVEIKR
notes: as for B2
Bioactivity relative to TL1A-0002: 1.2 fold
IC50: 5.5 nM

Continued, values first:

Bioactivity relative to TL1A-0002: 1.1 fold
IC50: 5 nM
B1: TL1A-0080 (antibody, IgG1, V domains shown)
VH: QVQLVQSGAEVKKPGASVKVSCKASGYDFTYYGISWVRQAPGQGLEWMGWISTYGGNTHYARMLQGRVTMTTDTSTRTAYMELRSLRSDDTAVYYCARENYYGSGAYRGGMDVWGQGTTVTVSS
VL: EIVLTQSPATLSLSPGERATLSCRASQSVSSYLAWYQQKPGQAPRLLIYDASNRATGIPARFSGSGSGTDFTLTISSLEPEDFAVYYCQQRSNWPWTFGQGTKVEIKR
notes: as for B2

Bioactivity relative to TL1A-0002: 2 fold
IC50: 8.8 nM
B3: TL1A-0095 (antibody, IgG1, V domains shown)
VH: QVQLVQSGAEVKKPGASVKVSCKASGYDFTYYGISWVRQAPGQGLEWMGWISTYNGNTHYARMLQGRVTMTTDTSTRTAYMELRSLRSDDTAVYYCARETYYGSGAYRGGMDVWGQGTTVTVSS
VL: EIVLTQSPATLSLSPGERATLSCRASQSVSSYLAWYQQKPGQAPRLLIYDASNRATGIPARFSGSGSGTDFTLTISSLEPEDFAVYYCQQRSNWPWTFGQGTKVEIKR
notes: as for B2

Bioactivity relative to TL1A-0002: 1.5 fold
IC50: 6.8 nM
B8: TL1A-0083 (antibody, IgG1, V domains shown)
VH: QVQLVQSGAEVKKPGASVKVSCKASGYDFTYYGISWVRQAPGQGLEWMGWISTYGGNTHYAQKLQGRVTMTTDTSTRTAYMELRSLRSDDTAVYYCARENYYGSGAYRGGMDVWGQGTTVTVSS
VL: EIVLTQSPATLSLSPGERATLSCRASQSVSSYLAWYQQKPGQAPRLLIYDASNRATGIPARFSGSGSGTDFTLTISSLEPEDFAVYYCQQRSNWPWTFGQGTKVEIKR
notes: as for B2

Bioactivity relative to TL1A-0002: 1 fold
IC50: 4.7 nM
B10: TL1A-0085 (antibody, IgG1, V domains shown)
VH: QVQLVQSGAEVKKPGASVKVSCKASGYDFTYYGISWVRQAPGQGLEWMGWASTYNGNTHYAQKLQGRVTMTTDTSTRTAYMELRSLRSDDTAVYYCARENYYGSGAYRGGMDVWGQGTTVTVSS
VL: EIVLTQSPATLSLSPGERATLSCRASQSVSSYLAWYQQKPGQAPRLLIYDASNRATGIPARFSGSGSGTDFTLTISSLEPEDFAVYYCQQRSNWPWTFGQGTKVEIKR
notes: as for B2

Bioactivity relative to TL1A-0002: 1.3 fold
IC50: 5.9 nM
B11: TL1A-0093 (antibody, IgG1, V domains shown)
VH: QVQLVQSGAEVKKPGASVKVSCKASGYDFTYYGISWVRQAPGQGLEWMGWISAYNANTHYAPSLQGRVTMTTDTSTRTAYMELRSLRSDDTAVYYCARENYYGSGAYRGGMDVWGQGTTVTVSS
VL: EIVLTQSPATLSLSPGERATLSCRASQSVSSYLAWYQQKPGQAPRLLIYDASNRATGIPARFSGSGSGTDFTLTISSLEPEDFAVYYCQQRSNWPWTFGQGTKVEIKR
notes: as for B2

Bioactivity relative to TL1A-0002: 1 fold
IC50: 4.5 nM
B18: TL1A-0084 (antibody, IgG1, V domains shown)
VH: QVQLVQSGAEVKKPGASVKVSCKASGYDFTYYGISWVRQAPGQGLEWMGWASTYNGNTHYARMLQGRVTMTTDTSTRTAYMELRSLRSDDTAVYYCARENYYGSGAYRGGMDVWGQGTTVTVSS
VL: EIVLTQSPATLSLSPGERATLSCRASQSVSSYLAWYQQKPGQAPRLLIYDASNRATGIPARFSGSGSGTDFTLTISSLEPEDFAVYYCQQRSNWPWTFGQGTKVEIKR
notes: as for B2
